In publication PMC8413894:

Target: BACE1-GFP (UniProt P56817)
Experiment: co-IP

Sequence of UniProt P56817 (P56817 46-501): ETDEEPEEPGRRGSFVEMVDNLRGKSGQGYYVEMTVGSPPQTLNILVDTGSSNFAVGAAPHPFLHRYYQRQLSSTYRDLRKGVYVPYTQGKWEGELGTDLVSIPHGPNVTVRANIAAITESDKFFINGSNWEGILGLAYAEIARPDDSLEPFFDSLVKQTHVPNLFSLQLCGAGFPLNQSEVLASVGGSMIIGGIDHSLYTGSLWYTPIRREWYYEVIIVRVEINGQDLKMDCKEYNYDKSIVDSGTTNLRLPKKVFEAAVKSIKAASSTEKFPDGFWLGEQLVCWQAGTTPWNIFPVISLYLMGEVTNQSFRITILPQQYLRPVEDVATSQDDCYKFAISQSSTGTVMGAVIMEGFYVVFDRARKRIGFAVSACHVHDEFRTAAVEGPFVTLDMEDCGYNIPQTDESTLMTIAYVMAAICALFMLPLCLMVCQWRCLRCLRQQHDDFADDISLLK

Work on “Bin1-KR (siRNA-resistant neuronal Bin1-MYC with the LOAD mutation K358R, rs138047593) (from UniProt O08539-1 1-588) (natural protein)” yielded a percent reduction of co-immunoprecipitated Bin1 against Bin1-WT of 65%.
